# Measurements taken from US20230406951A1 (Pfizer, published 2023).
# Numbering of substitutions follows the chain as printed. In names and notes the source's numbering stands.
# T1: human TNFR2 (human, UniProt P20333 23-461)
# T1 construct: Human TNFR2 over-expressed on CHO cells, full length on transduced NF-KB-GFP Jurkat cells, or native on human primary T cells; also called Hu TNFR2; TNFRSF1B
# T1 sequence: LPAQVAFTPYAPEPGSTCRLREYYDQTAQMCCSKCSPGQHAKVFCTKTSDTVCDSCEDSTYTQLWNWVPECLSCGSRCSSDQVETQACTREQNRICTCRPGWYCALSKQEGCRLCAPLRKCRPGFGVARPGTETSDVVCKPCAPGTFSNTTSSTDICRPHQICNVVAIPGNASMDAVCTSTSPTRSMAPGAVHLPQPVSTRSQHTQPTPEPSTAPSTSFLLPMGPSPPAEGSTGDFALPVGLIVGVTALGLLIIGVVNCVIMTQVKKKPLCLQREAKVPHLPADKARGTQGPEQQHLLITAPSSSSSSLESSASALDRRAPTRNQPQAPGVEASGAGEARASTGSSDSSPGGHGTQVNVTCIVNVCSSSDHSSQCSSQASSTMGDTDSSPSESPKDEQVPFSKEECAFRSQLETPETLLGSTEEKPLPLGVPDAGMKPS
# T2: human TNFR2 (human, UniProt P20333 23-461)
# T2 construct: expressed on the surface of CHO cells; also called HuTNFR2; TNFRSF1B
# T2 sequence: T1 sequence
# B1: clone 1774 (antibody, V domains shown)
# VH: QVQLVQSGAEVKKPGASVKVSCKVSGFSFPSSGVDWVRQAPGQGLEWLGVTWGVGSTHYNQKFQGRVTITKDNSKSTVYMELSSLRSEDTAVYYCASGEWDEGFVYWGQGTLVTVSS
# VL: DIQLTQSPSFLSASVGDRVTITCKASQNVGTAVAWYQQKPGKAPKLLIYSASNRYTGVPSRFSGSGSGTEFTLTISSLQPEDFATYYCQQYSSYPLTFGGGTKVEIK
# B2: clone 1773 (antibody, name in Kabat numbering, V domains shown)
# VH: B1 VH
# VL: B1 VL with S50A, N53T, R54L, Y55Q, T56S
# B3: clone 1766 (antibody, V domains shown)
# VH: B1 VH with N73T
# VL: B1 VL
# B4: TetraFab 2206 (antibody, human IgG1, kappa, name in Kabat numbering)
# heavy: QVQLVQSGAEVKKPGASVKVSCKVSGFSFPSSGVDWVRQAPGQGLEWLGVTWGVGSTHYNQKFQGRVTITKDTSKSTVYMELSSLRSEDTAVYYCASGEWDEGFVYWGQGTLVTVSSASTKGPSVFPLAPSSKSTSGGTAALGCLVKDYFPEPVTVSWNSGALTSGVHTFPAVLQSSGLYSLSSVVTVPSSSLGTQTYICNVNHKPSNTKVDKKVEPKSCGGGGSQVQLVQSGAEVKKPGASVKVSCKVSGFSFPSSGVDWVRQAPGQGLEWLGVTWGVGSTHYNQKFQGRVTITKDTSKSTVYMELSSLRSEDTAVYYCASGEWDEGFVYWGQGTLVTVSSASTKGPSVFPLAPSSKSTSGGTAALGCLVKDYFPEPVTVSWNSGALTSGVHTFPAVLQSSGLYSLSSVVTVPSSSLGTQTYICNVNHKPSNTKVDKKVEPKSCDKTHTCPPCPAPEAAGAPSVFLFPPKPKDTLMISRTPEVTCVVVDVSHEDPEVKFNWYVDGVEVHNAKTKPREEQYNSTYRVVSVLTVLHQDWLNGKEYKCKVSNKALPAPIEKTISKAKGQPREPQVYTLPPSREEMTKNQVSLTCLVKGFYPSDIAVEWESNGQPENNYKTTPPVLDSDGSFFLYSKLTVDKSRWQQGNVFSCSVMHEALHNHYTQKSLSLSPGK
# light: DIQLTQSPSFLSASVGDRVTITCKASQNVGTAVAWYQQKPGKAPKLLIYAASTLQSGVPSRFSGSGSGTEFTLTISSLQPEDFATYYCQQYNSYPFGGGTKVEIKRTVAAPSVFIFPPSDEQLKSGVTASVVCLLNNFYPREAKVQWKVDNALQSGNSQESVTEQDSKDSTYSLSSTLTLSKADYEKHKVYACEVTHQGLSSPVTKSFNRGEC
# notes: TetraFab; parental heavy chain
# B5: TetraFab 2125 (antibody)
# heavy: B4 heavy with W52R, V54E, W100S, D101T, W277R, V279E, W325S, D326T
# light: DIQLTQSPSFLSASVGDRVTITCKASQNVGTAVAWYQQKPGKAPKLLIYAASTLQSGVPSRFSGSGSGTEFTLTISSLQPEDFATYYCQQYYSTPFGGGTKVEIKRTVAAPSVFIFPPSDEQLKSGTASVVCLLNNFYPREAKVQWKVDNALQSGNSQESVTEQDSKDSTYSLSSTLTLSKADYEKHKVYACEVTHQGLSSPVTKSFNRGEC
# notes: TetraFab
# B6: TetraFab 2113 (antibody)
# heavy: B4 heavy with W52R, V54E, W277R, V279E
# light: B5 light
# notes: TetraFab
# B7: TetraFab 2109 (antibody)
# heavy: B4 heavy with W52H, V54S, W100H, W277H, V279S, W325H
# light: B5 light with Y92N, T94Y
# notes: TetraFab
# B8: TetraFab 2207 (antibody, human IgG1, kappa, name in Kabat numbering)
# heavy: B4 heavy
# light: B4 light with N92Y, Y94T
# notes: as for B4
# B9: TetraFab 2106 (antibody)
# heavy: B4 heavy with W52L, V54H, W100R, W277L, V279H, W325R
# light: B5 light with Y92N, T94Y
# notes: TetraFab
# B10: TetraFab 2098 (antibody)
# heavy: B4 heavy with W52R, V54E, W100R, W277R, V279E, W325R
# light: B5 light with Y92N, T94Y
# notes: TetraFab
# B11: TetraFab 2099 (antibody)
# heavy: B4 heavy with W52R, V54E, W100Q, W277R, V279E, W325Q
# light: B5 light with Y92N, T94Y
# notes: TetraFab
# B12: TetraFab 2108 (antibody)
# heavy: B4 heavy with W52H, V54S, W100S, D101T, W277H, V279S, W325S, D326T
# light: B5 light with Y92N, T94Y
# notes: TetraFab
# B13: TetraFab 2096 (antibody)
# heavy: B4 heavy with W52R, V54E, W100S, D101T, W277R, V279E, W325S, D326T
# light: B5 light with Y92N, T94Y
# notes: TetraFab
# B14: TetraFab 2112 (antibody)
# heavy: B4 heavy with W52K, V54Q, W277K, V279Q
# light: B5 light
# notes: TetraFab
# B15: TetraFab 2118 (antibody)
# heavy: B4 heavy with W100H, W325H
# light: B5 light
# notes: TetraFab
# B16: TetraFab 2209 (antibody, human IgG1, kappa)
# heavy: B4 heavy
# light: DIQLTQSPSFLSASVGDRVTITCKASQNVGTAVAWYQQKPGKAPKLLIYAASTLQSGVPSRFSGSGSGTEFTLTISSLQPEDFATYYCLQYSSYPLTFGGGTKVEIKRTVAAPSVFIFPPSDEQLKSGVTASVVCLLNNFYPREAKVQWKVDNALQSGNSQESVTEQDSKDSTYSLSSTLTLSKADYEKHKVYACEVTHQGLSSPVTKSFNRGEC
# notes: as for B4
# B17: TetraFab 2208 (antibody, human IgG1, kappa)
# heavy: B4 heavy
# light: B16 light with Y91K
# notes: as for B4
# B18: TetraFab 2053 (antibody, human IgG1, kappa)
# heavy: B4 heavy
# light: B16 light with L89Q
# notes: dual Fab heavy chain (outer VH-CH1, G4S linker, inner VH-CH1, human IgG1 Fc) pairing with 4 light chains; also called TF2053
# Target: human TNFR2 (human) (UniProt P20333)
# Assay: cell-based or functional assay
"EC50 Jurkat assay, With aggregates","EC50 Jurkat assay, Without aggregates",Loss of potency (without against with aggregates),Molecule
120 ng/mL,5750 ng/mL,50 fold,"MR2-1 (Hycult Biotech, ref #HM2007) (antibody)"

# Target: T1, human TNFR2
# Assay: binding to human TNFR2 CHO cells
row,EC50,Molecule
1,1.56 nM,B1
2,1.13 nM,B2
3,1.19 nM,B3

# Target: T2, human TNFR2
# Assay: binding to human TNFR2 CHO cells
row,binding result,Molecule
1,no binding,B4
2,no binding,B5
3,no binding,B6
4,no binding,B7
5,no binding,B8
6,no binding,B9
7,no binding,B10
8,no binding,B11
9,no binding,B12
10,no binding,B13
11,no binding,B14
12,no binding,B15

# Target: T2, human TNFR2
# Assay: binding to human TNFR2 CHO cells, TetraFab format
row,EC50,Molecule
1,0.15 nM,B16
2,2.3 nM,B17
3,0.7 nM,B18
